Positions count from the first letter of the chain named. Names and notes keep the numbering of the source.
B1: MYT1244 (antibody, V domains shown)
VH: QVQLQQPGAEVVKPGASVKMSCKASGYTFTSYYIHWIKQTPGQGLEWVGVIYPGNDDISYNQKFQGKATLTADKSSTTAYMQLSSLTSEDSAVYYCAREVHLRYFDVWGQGTTVTVSS
VL: EIVLTQSPGSLAVSPGERVTMSCKSSQSVFFSSSQKNYLAWYQQIPGQSPRLLIYWASTRESGVPDRFTGSGSGTDFTLTISSVQPEDLAIYYCHQYLSSRTFGQGTKLEIK
notes: IgG; IMGN779 VH variant #32 (R101H)
B2: MYT1245 (antibody, V domains shown)
VH: B1 VH with H101R, L102H
VL: B1 VL
notes: IgG; IMGN779 VH variant #33 (L102H)
B3: MYT1246 (antibody, V domains shown)
VH: B1 VH with H101R, R103H
VL: B1 VL
notes: IgG; IMGN779 VH variant #34 (R103H)
B4: MYT1247 (antibody, V domains shown)
VH: B1 VH with H101R, Y104H
VL: B1 VL
notes: IgG; IMGN779 VH variant #35 (Y104H)
B5: MYT1248 (antibody, V domains shown)
VH: B1 VH with H101R, F105H
VL: B1 VL
notes: IgG; IMGN779 VH variant #36 (F105H)
B6: MYT1250 (antibody, V domains shown)
VH: B1 VH with H101R, V107H
VL: B1 VL
notes: IgG; IMGN779 VH variant #38 (V107H)
B7: MYT2617 (antibody, V domains shown)
VH: B1 VH with H101R
VL: B1 VL with K24H
notes: IgG; IMGN779 VL variant #1 (K24H)
B8: MYT2618 (antibody, V domains shown)
VH: B1 VH with H101R
VL: B1 VL with S25H
notes: IgG; IMGN779 VL variant #2 (S25H)
B9: MYT2619 (antibody, V domains shown)
VH: B1 VH with H101R
VL: B1 VL with S26H
notes: IgG; IMGN779 VL variant #3 (S26H)
B10: MYT2620 (antibody, V domains shown)
VH: B1 VH with H101R
VL: B1 VL with Q27H
notes: IgG; IMGN779 VL variant #4 (Q27H)
B11: MYT2621 (antibody, V domains shown)
VH: B1 VH with H101R
VL: B1 VL with S28H
notes: IgG; IMGN779 VL variant #5 (S28H)
B12: MYT2622 (antibody, V domains shown)
VH: B1 VH with H101R
VL: B1 VL with V29H
notes: IgG; IMGN779 VL variant #6 (V29H)
B13: MYT2623 (antibody, V domains shown)
VH: B1 VH with H101R
VL: B1 VL with F30H
notes: IgG; IMGN779 VL variant #7 (F30H)
B14: MYT2624 (antibody, V domains shown)
VH: B1 VH with H101R
VL: B1 VL with F31H
notes: IgG; IMGN779 VL variant #8 (F31H)
B15: MYT2625 (antibody, V domains shown)
VH: B1 VH with H101R
VL: B1 VL with S32H
notes: IgG; IMGN779 VL variant #9 (S32H)
B16: MYT2626 (antibody, V domains shown)
VH: B1 VH with H101R
VL: B1 VL with S33H
notes: IgG; IMGN779 VL variant #10 (S33H)
B17: MYT2627 (antibody, V domains shown)
VH: B1 VH with H101R
VL: B1 VL with S34H
notes: IgG; IMGN779 VL variant #11 (S34H)
B18: MYT2628 (antibody, V domains shown)
VH: B1 VH with H101R
VL: B1 VL with Q35H
notes: IgG; IMGN779 VL variant #12 (Q35H)
B19: MYT2629 (antibody, V domains shown)
VH: B1 VH with H101R
VL: B1 VL with K36H
notes: IgG; IMGN779 VL variant #13 (K36H)
B20: MYT2630 (antibody, V domains shown)
VH: B1 VH with H101R
VL: B1 VL with N37H
notes: IgG; IMGN779 VL variant #14 (N37H)
B21: MYT2631 (antibody, V domains shown)
VH: B1 VH with H101R
VL: B1 VL with Y38H
notes: IgG; IMGN779 VL variant #15 (Y38H)
B22: MYT2632 (antibody, V domains shown)
VH: B1 VH with H101R
VL: B1 VL with L39H
notes: IgG; IMGN779 VL variant #16 (L39H)
B23: MYT2634 (antibody, V domains shown)
VH: B1 VH with H101R
VL: B1 VL with W56H
notes: IgG; IMGN779 VL variant #18 (W56H)
B24: MYT2635 (antibody, V domains shown)
VH: B1 VH with H101R
VL: B1 VL with A57H
notes: IgG; IMGN779 VL variant #19 (A57H)
B25: MYT2636 (antibody, V domains shown)
VH: B1 VH with H101R
VL: B1 VL with S58H
notes: IgG; IMGN779 VL variant #20 (S58H)
B26: MYT2637 (antibody, V domains shown)
VH: B1 VH with H101R
VL: B1 VL with T59H
notes: IgG; IMGN779 VL variant #21 (T59H)
B27: MYT2638 (antibody, V domains shown)
VH: B1 VH with H101R
VL: B1 VL with R60H
notes: IgG; IMGN779 VL variant #22 (R60H)
B28: MYT2639 (antibody, V domains shown)
VH: B1 VH with H101R
VL: B1 VL with E61H
notes: IgG; IMGN779 VL variant #23 (E61H)
B29: MYT2640 (antibody, V domains shown)
VH: B1 VH with H101R
VL: B1 VL with S62H
notes: IgG; IMGN779 VL variant #24 (S62H)
B30: MYT2641 (antibody, V domains shown)
VH: B1 VH with H101R
VL: B1 VL with H95A
notes: IgG; IMGN779 VL variant #25 (H95A)
B31: MYT2642 (antibody, V domains shown)
VH: B1 VH with H101R
VL: B1 VL with Q96H
notes: IgG; IMGN779 VL variant #26 (Q96H)
B32: MYT2643 (antibody, V domains shown)
VH: B1 VH with H101R
VL: B1 VL with Y97H
notes: IgG; IMGN779 VL variant #27 (Y97H)
B33: MYT2644 (antibody, V domains shown)
VH: B1 VH with H101R
VL: B1 VL with L98H
notes: IgG; IMGN779 VL variant #28 (L98H)
B34: MYT2645 (antibody, V domains shown)
VH: B1 VH with H101R
VL: B1 VL with S99H
notes: IgG; IMGN779 VL variant #29 (S99H)
B35: MYT2646 (antibody, V domains shown)
VH: B1 VH with H101R
VL: B1 VL with S100H
notes: IgG; IMGN779 VL variant #30 (S100H)
B36: MYT2647 (antibody, V domains shown)
VH: B1 VH with H101R
VL: B1 VL with R101H
notes: IgG; IMGN779 VL variant #31 (R101H)
B37: MYT2648 (antibody, V domains shown)
VH: B1 VH with H101R
VL: B1 VL with T102H
notes: IgG; IMGN779 VL variant #32 (T102H)
B38: MYT1335 (antibody, V domains shown)
VH: QVQLVQSGAEVKKPGASVKVSCKASHYTFTNYDINWVRQAPGQGLEWIGWIYPGDGSTKYNEKFKAKATLTADTSTSTAYMELRSLRSDDTAVYYCASGYEDAMDYWGQGTTVTVSS
VL: DIQMTQSPSSLSASVGDRVTINCKASQDINSYLSWFQQKPGKAPKTLIYRANRLVDGVPSRFSGSGSGQDYTLTISSLQPEDFATYYCLQYDEFPLTFGGGTKVEIK
notes: IgG; vadastuximab VH variant #1 (G26H)
B39: MYT1336 (antibody, V domains shown)
VH: B38 VH with H26G, Y27H
VL: B38 VL
notes: IgG; vadastuximab VH variant #2 (Y27H)
B40: MYT1337 (antibody, V domains shown)
VH: B38 VH with H26G, T28H
VL: B38 VL
notes: IgG; vadastuximab VH variant #3 (T28H)
B41: MYT1338 (antibody, V domains shown)
VH: B38 VH with H26G, F29H
VL: B38 VL
notes: IgG; vadastuximab VH variant #4 (F29H)
B42: MYT1339 (antibody, V domains shown)
VH: B38 VH with H26G, T30H
VL: B38 VL
notes: IgG; vadastuximab VH variant #5 (T30H)
B43: MYT1340 (antibody, V domains shown)
VH: B38 VH with H26G, N31H
VL: B38 VL
notes: IgG; vadastuximab VH variant #6 (N31H)
B44: MYT1341 (antibody, V domains shown)
VH: B38 VH with H26G, Y32H
VL: B38 VL
notes: IgG; vadastuximab VH variant #7 (Y32H)
B45: MYT1343 (antibody, V domains shown)
VH: B38 VH with H26G, I34H
VL: B38 VL
notes: IgG; vadastuximab VH variant #9 (I34H)

Target: CD33 (Sino Biological, Cat #12238-H08H) (UniProt P20138 18-259)
Sequence (P20138 18-259 limits assumed): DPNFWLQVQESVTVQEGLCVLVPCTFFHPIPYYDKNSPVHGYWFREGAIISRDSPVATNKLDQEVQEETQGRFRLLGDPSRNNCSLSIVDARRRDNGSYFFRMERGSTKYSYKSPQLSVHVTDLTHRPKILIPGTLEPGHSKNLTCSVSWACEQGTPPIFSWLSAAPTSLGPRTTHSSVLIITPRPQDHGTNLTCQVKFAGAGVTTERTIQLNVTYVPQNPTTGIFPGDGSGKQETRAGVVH
Assay: BLI, IgG captured on anti-human Fc sensor, 50 nM CD33, pH 7.4 vs pH 5.4

Binding result, binds:
B1
B2
B3
B4
B5
B6
B7
B8
B9
B10
B11
B12
B13
B14
B15
B16
B17
B18
B19
B20
B21
B22
B23
B24
B25
B26
B27
B28
B29
B30
B31
B32
B33
B34
B35
B36
B37
B38
B39
B40
B41
B42
B43
B44
B45

— patent US20220324969A1 (MYTHIC THERAPEUTICS, published 2022)
